Protein production data for 23 sequences are collected here from a protein production outcome set (Wang et al. 2014).

The series in a line: label from the status in PepcDB records.

In the case of “MSKSTKVDLVFLFFTAIWGLSFPLTKNVLGYTSIFAFLSLRFTSAAVILIIIFWKKLKLINTKIILYGSLIGLMFFGSLAFQVASLRFTTSSNSSFISALSVVIVPLVSAGYYKKKIDFSCVLGVLFAVVGLFFISGGVNFKLNIGDLFSFLCAICITFQIIFIDIFCSKCDSALLSLIQVVFCAIFYNIVLFIIGTKPIVFNTQLTVSIFITGILGTAVAYTGIVFLEKFTSPTHTALIFCAEPVFATIFAMFIPNNNGSCESITINTFIGCGVILLSMVISELKIGNNIPQKIIKL”, the protein production result is given as “failed”.
As for “MSKVALFSHVSPDGDCIGSMLGIGLALEALGKEVAMFNPDPIPRNLSFLPGVDKITQSMPDPLPETLLFVDCADLQRVQLQREDLPADAVILNLDHHISNQNFGRINWVDSQAAASGELAYALVRRLNVELTQEIAANFYTALLTDTGSFKYANTTAKTHQIAGELMELEHHHHHH”, the protein production entry was “failed”.
In the case of “MSLADISVIQSLPLSGSQAVTGRALNAGARLYFDWLNLNGGINGETIRLVARDDEQKIEQTVRNVRDMARVDNPVALLTVVGTANVEALMREGVLAEARLPLVGPATGASSMTTDPLVFPIKASYQQEIDKMITALVTIGVTRIGVLYQEDALGKEAITGVERTLKAHALAITAMASYPRNTANVGPAVDKLLAADVQAIFLGATAEPAAQFVRQYRARGGEAQLLGLSSIDPGILQKVAGLDAVRGYSLALVMPNPGKSVNPVIREFNRARAAVGAKDVDLSFRAVEGFVAAKVLAEAIRRAGPKPTREQVRHALTELRDYDVGGGFTVDFTDRSRPGSHYIELGVVGPNGLVIQEGHHHHHH”, the protein production result is reported as “not failed”.
On to “MSLADTRKIDSVLLIDDDDIVNFLNTTIIRMTHRVEEIQSVTSGNAAINKLNELYAAGRWPSIICIDINMPGINGWELIDLFKQHFQPMKNKSIVCLLSSSLDPRDQAKAEASDWVDYYVSKPLTANALNNLYNKVLNEGHHHHHH”, for which the protein production result is on record as “not failed”.
In the case of “MSLAEGKWWRIMLVDTQLPALAASISALSQEGFDIIQCGNAIEAVPVAVKTHPHLIITEANMPKISGMDLFNSLKKNPQTASIPVIALSGRATAKEEAQLLDMGFIDFIAKPVNAIRLSARIKRVLKLLYEDLSAPPAREGHHHHHH”, the protein production entry was “not failed”.
As for “MSLANLSELPNIGKVLEQDLIKAGIKTPVELKDVGSKEAFLRIWENDSSVCMSELYALEGAVQGIRWHGLDEAKKIELKKFHQSLEGHHHHHH”, the protein production entry is reported as “not failed”.
Consider “MSLAPWRGAIAHALHRNRSLVYARYLQLATVQPNGRPANRTLVFRGFLEDTNQLRFITDTRSAKADQIQQQPWAEICWYFPNTREQFRMAGDLTLISSDDSHQDLQPARIAMWQELSDAARLQFGWPYPGKPRIKESGAFEPSPPDPIEPVPNFCLLLLDPVQVDHLELRGEPQNRWLYHRNDQQEWSSEAINP”, for which the protein production result was “not failed”.
For “MSLDALTTLPIKKHTALLNRFPETRFVTQLAKKRASWIVFGHYLTPAQFEDMDFFTNRFNAILDMWKVGRYEVALMDGELTSEHETILKALELDYARIQDVPDLTKPGLIVLDMDSTAIQIECIDEIAKLAGVGEEVAEVTERAMQGELDFEQSLRLRVSKLKDAPEQILSQVRETLPLMPELPELVATLHAFGWKVAIASGGFTYFSDYLKEQLSLDYAQSNTLEIVSGKLTGQVLGEVVSAQTKADILLTLAQQYDVEIHNTVAVGDGANDLVMMAAAGLGVAYHAKPKVEAKAQTAVRFAGLGGVVCILSAALVAQQKLSWKSKEGHHHHHH”, the protein production entry was “not failed”.
In the case of “MSLDARFDIAHLARAELFSPKPQETLDFFTKFLGMYVTHREGQSVYLRGYEDPYPWSLKITEAPEAGMGHAAMRTSSPEALERRAKSLTDGNVDGTWSEDQFGYGKTFEYQSPDGHNLQLLWEAEKYVAPPELRSKILTRPSKKPLQGIPVKRIDHLNLMSSDVTAVKDSFERHLGFRTTERVVDGNVEIGAWMSSNLLGHEVACMRDMTGGHGKLHHLAFFYGTGQHNIDAVEMFRDYDIQIEAGPDKHGITQSQFLYVFEPGGNRIELFGEAGYLHLDPDAETKTWQMSDIDTGLAVGGAKLPWESYFTYGTPSPLSLDQHIEKYAHFGEGHHHHHH”, the protein production result is “not failed”.
For “MSLDFHGVFPYLVSPVDAEGRVRADVMGRLCDDLIQAGVHGLTPLGSTGEFAYLGTAQREAVVRATIEAAQRRVPVVAGVASTSVADAVAQAKLYEKLGADGILAILEAYFPLKDAQIESYFRAIADAVEIPVVIYTNPQFQRSDLTLDVIARLAEHPRIRYIKDASTNTGRLLSIINRCGDALQVFSASAHIPAAVMLIGGVGWMAGPACIAPRQSVALYELCKAQRWDEALMLQRKLWRVNEAFAKFNLAACIKAGLALQGYDVGDPIPPQAALTAEERKAVEKVLAEIAEGHHHHHH” the value was “not failed”; for “MSLDKAIKEVRGNGKLKVAVFSDPDCPFCKRLEHEFEKMTDVTVYSFMMPIAGLHPDAARKAQILWCQPDRAKAWTDWMRKGKFPVGGSICDNPVAETTSLGEQFGFNGTPTLVFPNGRTQSGYSPMPQLEEIIRKNQQEGHHHHHH”, “not failed”; for “MSLDKVLEDEVVEDTGESQVFNLLNPEFVDFDTCLDPITNELPTSETTKPAGELRREKTPAKKGNSNSSSVDHRFTSASRAFTQKKLDDLKSLFVSLASKSHSNDQYVSYPVFQEYFGLSGSLGERIFDMVTQHRKDDKMTFEDLVIAKMTFEDLVIAKVHT”, “failed”.
As for “MSLDNSRTRPRVGHIQFLNCLPLYWGLARTGTLLDFELTKDTPEKLSEQLVRGDLDIGPVTLVEFLKNADDLVAFPDIAVGCDGPVMSCVIVSQVPLDRLDGARVALGSTSRTSVRLAQLLLSERFGVQPDYYTCPPDLSLMMQEADAAVLIGDAALRANMIDGPRYGLDVHDLGALWKEWTGLPFVFAVWAARRDYAEREPVITRKVHEAFLASRNLSLEEVEKVAEQAARWEAFDEDTLAKYFTTLDFRFGAPQLEAVTEFARRVGPTTGFPADVKVELLKPEGHHHHHH”, the entry is “not failed”; as for “MSLDRIRLASLHDKVISADAAAAFIQDGMTVGMSGFTRAGEAKAVPQALVERAKQNPLKITLITGASLGNDLDKQLTEAGVLARRLPFQVDNTLRRAINNGEVMFIDQHLSETVEQMRNLQLKRPDVAVIEAIAITEDGGIIPTTSVGNSASFAIFAEKVIVEINTSLSEAFEGLHDIYIPSYRPTRQPIPLTKVDERIGTTAIQIDPAKIVGIVFNDTADSPSTVTLPDDETQGIANHLIAFFEKEVAEGRLPQNLGPLQAGIGSIANAVLTGLKDSNFEDLVMYSEVLQDCTFELIDAGKMKFASGSSITLSAKCGEKVFGNIEAYKDKLVLRPQEISNHPELVRRLGIIGINTALEFDIYGNVNSTHVCGTKMMNGIGGSGDFARNAHLAIFVTKSIAKGGDISSIVPMVSHVDHSEHDVDILVTEQGLADLRGLAPRERARAVIDHCVHPLYKDALNDYFSRASAKGGHTPHLLREALSWHVNFEENGHMLAIEPEAKSA”, “failed”; as for “MSLDRPRCCLRGKECSINRFQQVESRWGYSGTSDRIRFSVNKRIFVVGFGLYGSIHGPTDYQVNIQIIHTDSNTVLGQNDTGFSCDGSASTFRVMFKEPVEVLPNVNYTACATLKGPDSHYGTKGMRKVTHESPTTGAKTCFTFCYAAGNNNGTSVEDGQIPEVIFYTEGHHHHHH”, “not failed”.
Regarding “MSLDSPLYGRSFADDKMRELFSAQSFISRCVETEVALARAQARLGIIPEDAAAGITAAARTFAPEMERLRDDTEIVGYPILPLVEQLSAHAGEAGKYLHWGATTQDIMDTATVLQIRDGLALISRRIESVRKALAALARNHRDTPMAGRTHLQHALPVTFGYKAAVWLSAFDRHAARLEEISPRVLVVEFSGASGTLASLGTRGLDVQRELARELNLGVPSITWHSARDAVAETVQFLALVSGSLGKLAMDISIMMTTELGEVAEPFVRHRGASSTMPQKQNPVSCELILAGARIVRNHATSMLDAMIHDFERATGPWHLEWSAVPEGFAVASGILYQAEFMLGGLQVFPDRMRENLDHSRGLIVAEAVMMALAPHTGRKEAHDIVYLGCRRAVEDKTGLFEVLRTMPEVAKPLGEEALRDLTDPRNYLGSAGAMVDNVLGGREGHHHHHH”, the protein production entry was “not failed”.
For “MSLEAVTILLADDEAILLLDFESTLTDAGFLVTAVSSGAKAIEMLKSGAAIDGVVTDIRFCQPPDGWQVARVAREIDPNMPIVYISGHAALEWASNGVPDSIILEKPFTSAQLITAVSQLLNAREGHHHHHH” the value was “not failed”; for “MSLEDHAEELASDLGVDKEEVTRDLENLVNYSVPMDEAKQSLRRKYGDGSSGGDSTPSSKAINEVSTEDSNVTVTAVVLTSGRRSIQYNGEQHVIREGELADETGKISYTAWDGFSGDLQPGQTVQLGNAGVREWDGQPELNLGDSTDPEVVDETLDIDYDVGGRAALQDLAPGDRGITVEVQVLECEQKVIDGRDGETTILSGVLGDESGRLPFTDWDPHDEIEEGASVRLDETFVREFRGAPSVNVSEFSAVTALDRTVGVTEDAPRLSVREAVESGGLFDVELAGNVIEVRDGSGLIERCPECGRVIQNGQCRSHGAVEGEDDLRTKAILDDGTDTVTAVLDDELTARVYGGDLDDAREHARDAMDKEVVAERISDRIVGREYVVRGSLSVDEYGANLTASTFAEADDDPATRAQALLQEADTLEHHHHHH”, “not failed”.
With “MSLEEVIEQLREANEPVPVPLELPDEDQLVEIEEQLFINIPFVFKEFLLTVSDVVYGSLEPVTVTDPQSHTYLPEVCATAWDLGVPRELIPICQDGEDYYCVEEDGTVLLWSAEEELVTEESWESVWHWARDVWLESEGHHHHHH”, the protein production result was “not failed”.
On to “MSLEKLKLIGDERLDYLLAENLRIIQSPSVFSFSIDAVLLAKFSYLPIRKGKIIDLCSGNGIIPLLLSTRTKAKIVGVEIQERLADMAKRSVAYNQLEDQIEIIEYDLKKITDLIPKERADIVTCNPPYFATPDTSLKNTNEHFRIARHEVMCTLEDTIRVAASLLKQGGKANFVHRPERLLDIIDIMRKYRLEPKRIQFVHPRSDREANTVLVEGIKDGKPGVKYVPPVIVYDELGEYTPVIKEILYGESEGHHHHHH”, for which the protein production entry is “not failed”.
For “MSLEQASVTNDFSENKQGCIQHPWQGKKVGYIGDSITDPNCYGDNIKKYWDFLKEWLGITPFVYGISGRQWDDVPRQAEKLKKEHGGEVDAILVFMGTNDYNSSVPIGEWFTEQEEQVLSAHGEMKKMVTRKKRTPVMTQDTYRGRINIGITQLKKLFPDKQIVLLTPLHRSLANFGDKNVQPDESYQNGCGEYIDAYVQAIKEAGNIWGIPVIDFNAVTGMNPMVEEQLIYFYDAGYDRLHPDTKGQERMARTLMYQLLALPVAFEGHHHHHH” the value was “not failed”.
As for “MSLETVRLQRELIEAQRQTYNEMRTYFTVNGVEGVIGAVFDEGVITLRVPSEVLFAPGAVELAPGADRVLATLKDLFIRRREQNINIKGFTDDVQPSANARFKDNWEVSALRSVNVLRYFLGAGIEPARLTATGLGELDPLFPNTSDENRARNRRVEFVLERRVVREGHHHHHH”, the entry is “not failed”; as for “MSLEWQDLAQLPVSIFKDYVTDAQDAEKPFIWTEVFLREINRSNQEIILHIWPMTKTVILGMLDRELPHLELAKKEIISRGYEPVVRNFGGLAVVADEGILNFSLVIPDVFERKLSISDGYLIMVDFIRSIFSDFYQPIEHFEVETSYCPGKFDLSINGKKFAGLAQRRIKNGIAVSIYLSVCGDQKGRSQMISDFYKIGLGDTGSPIAYPNVDPEIMANLSDLLDCPMTVEDVIDRMLISLKQVGFNDRLLMIRPDLVAEFDRFQAKSMANKGMVSRDEEGHHHHHH”, “not failed”.
